The source of these data is patent US10314925B2, “Thymidine kinase” (priority 2004, dated 2019).

Numbering of substitutions follows the chain as printed.

Series [1] relates to circulating modified cells. The settings on record: six patients who developed GvHD and received ganciclovir; cited from earlier work.
Series [2] relates to HSV-tk. In words: RT-PCR of HSV-tk mutants, RNA from Am12 supernatants. Further details: species or system HSV-1. The settings on record: for lower band (spliced form): TKA1/TKB1 primers. From the text: After sequence confirmation of SFCMM-3 HSV-tk mutants (FIGS. 1A-1C), one plasmid clone of each type was used to transiently transfect E86 cells. SFCMM-3 and TK3 plasmids were used as controls. The supernatant was collected from the E86 cultures and used to stably transduce the amphotropic packaging cell line Am12 as described in Materials and Methods section of Example 2. The resulting cell populations were selected for ΔLNGFR expression.
RNA was extracted from the E86 as well as Am12 culture supernatants containing infectious retroviral particles. RT-PCR reactions were carried out on RNA from E86 and Am12 supernatants using TKA1 and TKB1 primers according to the protocol described in Materials and Methods section of Example 2.

In series [3] the test system is HSV-tk. In words: PCR of genomic DNA from transduced PBLs of three donors. The format is cell-based, HSV-1. The settings on record: TKA1/TKB1 primers. As for the experimental part: (§1) CEM A301 cells were cultured in RPMI 1640 (Hyclone) supplemented with 10% FBS (Hyclone) and 2 mM glutamine. CEM A301 cells were infected with Am12 culture supernatant containing SFCMM-3 HSV-tk mutants 2 and 234. The day before transduction 5×10^5 cells/ml were cultured. Transduction was then performed by one centrifugation cycle of retroviral vector particles on cells. After the transduction phase, cells were collected and the percentage of actually transduced cells evaluated by FACS analysis. PBLs from three different donors were transduced (as described in Materials and Methods section of Example 2) with Am12 supernatant containing SFCMM-3 HSV-tk mutant 2 as well as SFCMM-3.
(§2) The transduced cells were then sorted for ΔLNGFR expression and expanded a few days in culture.
One pellet for PCR analysis was prepared from the transduced non selected cells as well as from transduced selected cells as described in Materials and Methods section of Example 2. […] Ten microliters of amplified product were analyzed by agarose gel electrophoresis.

The test system of series [4] is HSV-tk. Briefly: PCR of genomic DNA from transduced CEM A301 cells. In kind it is cell-based, HSV-1. The method, then: as §1, §2
One pellet for PCR analysis was prepared from the transduced non selected cells as well as from transduced selected cells as described in Materials and Methods section of Example 2. Genomic DNA was extracted from pellet cells and PCR reaction was carried out with TKA1 and TKB1 or TKY1 and TKY2 or TKZ1 and TKZ2 primers (as indicated in the table below) in a 25 μl reaction mixture containing 100-500 ng of genomic DNA, 1×PCR Buffer with 1.5 mM of MgCl2 (Applied Biosystems), […] of each dNTPs, 300 nM of each primer, 1.25 Units of AmpliTaq Gold (Applied Biosystems). The PCR cycling profile consisted of a first denaturation step for 15 min at 94° C. followed by 40 cycles with denaturation for 30 s at 94° C., annealing for 50 s at 60° C. and extension for 1 min at 72° C., and one final extension step of 10 min at 72° C., […] Ten microliters of amplified product were analyzed by agarose gel electrophoresis.

Setting [5] is: CEM A301, TKA1/TKB1 primers, before and after selection.

Consider `Nc1nc(O)c2ncn(COC(CO)CO)c2n1` [ganciclovir], for which, in series [1], the “average decrease in absolute number of circulating modified cells” value is listed as 85%.

B1: TkMut4 (nucleic acid)
DNA: ATGGCTTCGTACCCCTGCCATCAACACGCGTCTGCGTTCGACCAGGCTGCGCGTTCTCGCGGCCATAGCAACCGACGTACGGCGTTGCGCCCTCGCCGGCAGCAAGAAGCCACGGAAGTCCGCCTGGAGCAGAAAATGCCCACGCTACTGCGGGTTTATATAGACGGTCCTCACGGGATGGGGAAAACCACCACCACGCAACTGCTGGTGGCCCTGGGTTCGCGCGACGATATCGTCTACGTACCCGAGCCGATGACTTACTGGCAGGTGCTGGGGGCTTCCGAGACAATCGCGAACATCTACACCACACAACACCGCCTCGACCAGGGTGAGATATCGGCCGGGGACGCGGCGGTGGTAATGACAAGCGCCCAGATAACAATGGGCATGCCTTATGCCGTGACCGACGCCGTTCTGGCTCCTCATGTCGGGGGGGAGGCTGGGAGTTCACATGCCCCGCCCCCGGCCCTCACCCTCATCTTCGACCGCCATCCCATCGCCGCCCTCCTGTGCTACCCGGCCGCGCGATACCTTATGGGCAGCATGACCCCCCAAGCCGTGCTGGCGTTCGTGGCCCTCATCCCGCCGACCTTGCCCGGCACAAACATCGTGTTGGGGGCCCTTCCGGAGGACAGACACATCGACCGCCTGGCCAAACGCCAGCGCCCCGGCGAGCGGCTTGACCTGGCTATGCTGGCCGCGATTCGCCGCGTTTACGGGCTGCTTGCCAATACGGTGCGGTATCTGCAGGGCGGCGGGTCGTGGTGGGAGGATTGGGGACAGCTTTCGGGGACGGCCGTGCCGCCCCAGGGTGCCGAGCCCCAGAGCAACGCGGGCCCACGACCCCATATCGGGGACACGTTATTTACCCTGTTTCGGGCCCCCGAGTTGCTGGCCCCCAACGGCGACCTGTATAACGTGTTTGCCTGGGCCTTGGACGTCTTGGCCAAACGCCTCCGTCCCATGCACGTCTTTATCCTGGATTACGACCAATCGCCCGCCGGCTGCCGGGACGCCCTGCTGCAACTTACCTCCGGGATGGTCCAGACCCACGTCACCACCCCAGGCTCCATACCGACGATCTGCGACCTGGCGCGCACGTTTGCCCGGGAGATGGGGGAGGCTAACTGA
modifications: HSV-1 thymidine kinase mutant sequence.
Take B1: in the series with HSV-tk [2], the “spliced product compared to TK3 and SFCMM-3 (ethidium bromide signal)” value is listed as “less represented”; the “lower band (spliced form)” value is “lower band is detected”.

B2: TkMut24 (nucleic acid)
DNA: B1 DNA with T330C
modifications: HSV-1 thymidine kinase mutant sequence.
For the molecule B2, in the series on HSV-tk [2], the additional bands entry is “two very weak bands of approximately 100 and 200 bp are detected”; the “lower band (spliced form)” value is given as “not detected”.

B3: TkMut2 (nucleic acid)
DNA: B1 DNA with T330C, A555G
modifications: HSV-1 thymidine kinase mutant sequence.
Take B3: the “lower band (spliced form of HSV-tk gene)” value is reported as “No lower band is observed” in the series with HSV-tk [3]; “No lower band is observed” with HSV-tk [4] (setting [5]); “No lower band is observed” in the series with HSV-tk [4] (CEM A301, TKY1/TKY2 and TKZ1/TKZ2 primers). Besides, in the series on HSV-tk [2], the additional bands result was “two very weak bands of approximately 100 and 200 bp are detected”. Also, in the series with HSV-tk [2], the “lower band (spliced form)” value is reported as “not detected”.

B4: TkMut34 (nucleic acid)
DNA: B1 DNA with A541T, G542C
modifications: HSV-1 thymidine kinase mutant sequence.
In the case of B4, in the series with HSV-tk [2], the “spliced product compared to TK3 and SFCMM-3 (ethidium bromide signal)” value was “less represented”; the “lower band (spliced form)” value is given as “lower band is detected”.

B5: TkMut234 (nucleic acid)
DNA: B1 DNA with T330C, A541T, G542C
modifications: HSV-1 thymidine kinase mutant sequence.
In the case of B5, the “lower band (spliced form of HSV-tk gene)” value with HSV-tk [4] (setting [5]) is reported as “No lower band is observed”. Further, in the series on HSV-tk [2], the additional bands result is “two very weak bands of approximately 100 and 200 bp are detected”; the “lower band (spliced form)” value is on record as “not detected”.
